Patent US20200016266A1 (INIS BIOTECH, published 2020)
Where two headings read alike, the source gives them in different places.

T1: PGECLRV
T1 construct: 7-mer of the Gal1 peptide array, axis label
T1 peptide: PGECLRV

T2: QPGSVAEVCITFD
T2 construct: 13-mer of the Gal1 peptide array, axis label
T2 peptide: QPGSVAEVCITFD

T3: NLGKDSN
T3 construct: 7-mer of the Gal1 peptide array, axis label
T3 peptide: NLGKDSN

T4: VAPDAKS
T4 construct: 7-mer of the Gal1 peptide array, axis label
T4 peptide: VAPDAKS

T5: LPDGYEFKFPNRL
T5 construct: 13-mer of the Gal1 peptide array, axis label
T5 peptide: LPDGYEFKFPNRL

T6: TFDQANLTVKLPD
T6 construct: 13-mer of the Gal1 peptide array, axis label
T6 peptide: TFDQANLTVKLPD

T7: GLVASNL
T7 construct: 7-mer of the Gal1 peptide array, axis label
T7 peptide: GLVASNL


Key:
[1] = biological target: T8, Galectin-1 (human recombinant Gal1) (human, UniProt P09382 2-135, DyLight 594 label in the FRET assay only); assay: SPR, BIAEvaluation 3.0, 1:1 kinetic model
T8 construct: Recombinant Gal1 made in-house; also called rhGal1; 594-Gal1
T8 sequence (P09382 2-135 limits assumed): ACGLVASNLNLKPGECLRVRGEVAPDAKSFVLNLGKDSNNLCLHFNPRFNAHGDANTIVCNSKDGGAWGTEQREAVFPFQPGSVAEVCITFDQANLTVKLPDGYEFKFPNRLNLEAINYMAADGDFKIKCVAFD
Experimental: By using the BIAEvaluation 3.0 software in a kinetics model of interaction adjustment 1:1, kinetic parameters, constants of dissociation (Kd) and affinity (Ka) were calculated.

PGECLRV [2] = biological target: T1, PGECLRV; assay: PEPperMAP conformational epitope mapping peptide array, fluorescence intensity [a.u.]
QPGSVAEVCITFD [3] = biological target: T2, QPGSVAEVCITFD; assay: as above
NLGKDSN [4] = biological target: T3, NLGKDSN; assay: as above
VAPDAKS [5] = biological target: T4, VAPDAKS; assay: as above
LPDGYEFKFPNRL [6] = biological target: T5, LPDGYEFKFPNRL; assay: as above
TFDQANLTVKLPD [7] = biological target: T6, TFDQANLTVKLPD; assay: as above
GLVASNL [8] = biological target: T7, GLVASNL; assay: as above
PGECLRV [9] = biological target: T1, PGECLRV; assay: as above
QPGSVAEVCITFD [10] = biological target: T2, QPGSVAEVCITFD; assay: as above
NLGKDSN [11] = biological target: T3, NLGKDSN; assay: as above
VAPDAKS [12] = biological target: T4, VAPDAKS; assay: as above
LPDGYEFKFPNRL [13] = biological target: T5, LPDGYEFKFPNRL; assay: as above
TFDQANLTVKLPD [14] = biological target: T6, TFDQANLTVKLPD; assay: as above
GLVASNL [15] = biological target: T7, GLVASNL; assay: as above

Ka [1]	Kd [1]	binding result (PGECLRV [2])	binding result (QPGSVAEVCITFD [3])	binding result (NLGKDSN [4])	binding result (VAPDAKS [5])	binding result (LPDGYEFKFPNRL [6])	binding result (TFDQANLTVKLPD [7])	binding result (GLVASNL [8])	binding result (PGECLRV [9])	binding result (QPGSVAEVCITFD [10])	binding result (NLGKDSN [11])	binding result (VAPDAKS [12])	binding result (LPDGYEFKFPNRL [13])	binding result (TFDQANLTVKLPD [14])	binding result (GLVASNL [15])	Binder
649000 M⁻¹	1540 nM	no binding (tested: 10 µg/ml)	no binding (tested: 10 µg/ml)	no binding (tested: 10 µg/ml)	no binding (tested: 10 µg/ml)	no binding (tested: 10 µg/ml)	no binding (tested: 10 µg/ml)	no binding (tested: 10 µg/ml)	–	–	–	–	–	–	–	anti-Gal1 Clone 21, fully human monoclonal antibody (antibody, V domains shown, also called MAb21; Human Ab 21) VH: EVQLLESGGGLVQPGGSLRLSCAASGFTFSSYAMSWVRQAPGKGLEWVSEIGRVGVNTLYADSVKGRFTISRDNSKNTLYLQMNSLRAEDTAVYYCAKKATQFDYWGQGTLVTVSS VL: DIQMTQSPSSLSASVGDRVTITCRASQSISSYLNWYQQKPGKAPKLLIYRASRLQSGVPSRFSGSGSGTDFTLTISSLQPEDFATYYCQQTIGPPDTFGQGTKVEIKR
7.63e+06 M⁻¹	131 nM	–	–	–	–	–	–	–	no binding (tested: 10 µg/ml)	no binding (tested: 10 µg/ml)	no binding (tested: 10 µg/ml)	no binding (tested: 10 µg/ml)	no binding (tested: 10 µg/ml)	no binding (tested: 10 µg/ml)	no binding (tested: 10 µg/ml)	anti-Gal1 Clone 42, fully human monoclonal antibody (antibody, V domains shown, also called MAb42; Human Ab 42) VH: EVQLLESGGGLVQPGGSLRLSCAASGFTFSSYAMSWVRQAPGKGLEWVSGISGSGDYTSYADSVKGRFTISRDNSKNTLYLQMNSLRAEDTAVYYCAKGYGAFDYWGQGTLVTVSS VL: DIQMTQSPSSLSASVGDRVTITCRASQSISSYLNWYQQKPGKAPKLLIYGASWLQSGVPSRFSGSGSGTDFTLTISSLQPEDFATYYCQQSANYPSTFGQGTKVEIKR
